A short description of this data set: Storage stability of purified SDH. It counts as physicochemical. As to the method:
In another preferred embodiment the temperature of the aqueous reaction solution is 20° C. to 40° C., especially 25° C., in the enzymatic conversion. At temperatures of 25° C. the purified SDH has stability of about a week. Thus, temperatures in this range are well-suited for conducting long-term enzyme-catalyzed processes.
The purified SDH can be stored for about 8 months at −30° C. and the SDH is stable for about 30 days at +4° C.

This is an account of results in patent publication US7208301B2, “Method for producing 6-0-α-D-glucopyranosyl-D-sorbitol” (Südzucker Aktiengesellschaft Mannheim/Ochsenfurt, priority 1999, dated 2007).

B1: SDH: sorbitol dehydrogenase of Gluconobacter suboxidans DSM 2003, 262 amino acids (SEQ ID No. 1), purified per Example 1 (protein)
chain: MSKKFNGKVCLVTGAGGNIGLATALRLAEEGTAIALLDMNREALEKAEASVREKGVEARSYVCDVTSEEAVIGTVDSVVRDFGKIDFLFNNAGYQGAFAPVQDYPSDDFARVLTINVTGAFHVLKAVSRQMITQNYGRIVNTASMAGVKGPPNMAAYGASKGAIIALTETAALDLAPYNIRVNAISPGYMGPGFMWERQVELQAKVGSQYFSTDPKVVAQQMIGSVPMRRYGDINEIPGVVAFLLGDDSSFMTGVNLPIAGG
modifications: Gluconobacter suboxydans
As to B1, the “stability of purified SDH” value (at 25° C.) is reported as “about a week”. In addition, the “stability of SDH” value (at +4° C.) is recorded as “about 30 days”. The “storage time of purified SDH” value (at −30° C.) was “about 8 months”.
